This is an account of results in the nanobody polyreactivity screen of Harvey et al. (2022).

The data set can be described thus: yeast display, Sf9 membrane polyspecificity reagent, FACS + sequencing; frameworks hold sequencing errors. The method in brief:
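Polyreactivity labels are assigned by the sorting gate from which each nanobody was recovered. The gates were low and high (top ~1%), set on anti-HA fluorescence for expression and streptavidin fluorescence for reagent binding. Before sorting, galactose-induced (36–48 hours) yeast display cells were stained for 1 hour at 4 °C with 10% biotinylated, detergent-solubilized Sf9 membrane reagent.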
As for “QVQLVESGGGLVQAGGSLRLSCAASGLIFSHNVMGWYRQAPGKERELVAAISKGGGSTYYADSVKGRFTISRDNAKNTVYLQLNSLIPEDTAVYYCAAPYWSKYRQTEYDYWGQGTQVTVSS”, the “polyreactivity (PSR sort gate)” value is “high polyreactivity”. The value for “QVQLVESGGGLVQAGGSLRLSCAASGLIFSLYAMGWSRQAPGKDRELVADITVDGDGSTYYADSVKGRFTISRDIAKNTVYLQMNSLIPEDTAVYYCAADAYFGWYYYWGQGTQVTVSS” was “high polyreactivity”. In the case of “QVQLVESGGGLVQAGGSLRLSCAASGLIFSRNAMGWYRQAPGKERELVAAISTGGSTYYADSVKGRFTISRDNAKNTVYLQMNSLKPEATAVYDCAAAPGYIYEYWGQGTQVTVSS”, the “polyreactivity (PSR sort gate)” value is reported as “low polyreactivity”.

As for “QVQLVESGGGLVQAGGSLRLSCAASGLIFSRYTMGWYRQAPGKERELVAAISGRGTSTYYADSVKGRFTISRDNAKNTVYLQMNSLKPEDTAVYYCATSKSYSAFDYWGQGTQVTVSS”, the “polyreactivity (PSR sort gate)” value was “high polyreactivity”. With “QVQLVESGGGLVQAGGSLRLSCAASGLIFSSYAMGWYRQAPGKEREFVAAINYNGGRTYYADSVKGRFTISRDNAKNTVYLQMNSLKPEDTAVYYCDGRYGSGGDYWGQGTQVTVSS” the entry was “low polyreactivity”. On to “QVQLVESGGGLVQAGGSLRLSCAASGLIFSSYAMGWYRQAPGKERELVAAITGSGGRTYYADSVKGRFTISRDNAKNTVYLQMNSLKPEDTAVYYCAAKYPAPRYYTGYDYWGQGTQVTVSS”, for which the “polyreactivity (PSR sort gate)” value is reported as “high polyreactivity”. The value for “QVQLVESGGGLVQAGGSLRLSCAASGLIFSVYGMGWYRQAPGKERELVAAISSRGGSTYYADSVKGRFTISRDLAKNTVYLQMNSLKQEDTAVYYCAARSNYRMDYWGQGTQVTVSS” was “high polyreactivity”; that for “QVQLVESGGGLVQAGGSLRLSCAASGLIFSWYAMGWYRQAPGKERELVAAISSGSSTNYADSVKGRFTISRDNAKNTVYLQRNSLKPEDTAVYYCAARIYYTSRLRMYYWGQGTQVTVSS” was “high polyreactivity”. With “QVQLVESGGGLVQAGGSLRLSCAASGLIFSYNAMGWYRQAPGKERELVAAISYSGGSTYYADSVKGRYTISRDNAKYTVYLQMNSLKPEDTAVYYCAAVLSPDFYYWGQGTQVTVSS” the entry was “high polyreactivity”.

In the case of “QVQLVESGGGLVQAGGSLRLSCAASGLIFTGNTMGWSRQAPGKETELVADITWSDGSTYYADSVKGRFTISRDTENNTVYLQMNSLKPEDTAVYYCAADSVLDRPVLYLWPWYLGDYWGQGTQVTVSS”, the “polyreactivity (PSR sort gate)” value was “low polyreactivity”. The value for “QVQLVESGGGLVQAGGSLRLSCAASGLIFTPYAMGWYRQAPGKERELVAAINYGGSRTYYADSVKGRFTISRDNAKNTVYLQMNSLKPEDTAVYYCAARGFTLSYVDMYYWGLGTQVTVSS” was “high polyreactivity”; that for “QVQLVESGGGLVQAGGSLRLSCAASGLIFTPYPMGWYRQAPGKERELVAAISVSGGRTYYADSVKGRITISRDNEKNTVYLQMNSLKPEDTAVYYCAASDRYGGRDYWGQGTQVTVSS” was “high polyreactivity”; that for “QVQLVESGGGLVQAGGSLRLSCAASGLIFTRYAMGWYRQAPGKERELVAAISYSGTSTYYADSVKGRFTISRDNAKNTVYLQMNSLKPEDTAVYYCAAAYSRGSGVGRYRLDYWGQGTQVTVSS” was “high polyreactivity”. With “QVQLVESGGGLVQAGGSLRLSCAASGLIFTWNAMGWYRQAPGKEREFVAAISTGGSTSYADSVKGRFTISRDNAKNTVYLQMNRLKPEDTAVYYCARDSSIWSHGSWYDYWGQGTQVTVSS” the entry was “low polyreactivity”. With “QVQLVESGGGLVQAGGSLRLSCAASGLIFTYYAMGWYRPAPGKERELVASINYSGGSTYYADSVKGRFTISRDNAKNSVYLHMNSLKPEDTAVYYCAARRVTQTEGPMGYWGQGTQVTVSS” the entry was “low polyreactivity”; with “QVQLVESGGGLVQAGGSLRLSCAASGLIFVAFAMGWYRQAPGKERELVAAISRSGGSTYYADSVKGRFTISRDNAKNTVYLQMNSLKPEDTAVYYCAKYYGARHVDDDYWGQGTQVTVSS”, “high polyreactivity”.
